From paper PMC4774645

Key:
[1] = Western blot of culture media, 24 h; conditions: glycan lost; control: wild type
[2] = gelatin zymography of secreted protein; conditions: glycan lost; control: wild type
[3] = mCherry fluorescence in media, 32 h time course; conditions: glycan lost; control: wild type
[4] = Western blot of cell lysate; conditions: glycan lost; control: wild type
[5] = fluorogenic substrate kinetics with TIMP-1 titration; conditions: glycan lost; control: wild type
[6] = mCherry co-localisation with organelle-targeted eGFP; conditions: glycan lost; control: wild type
[7] = APMA or MMP-3 zymogen activation time course, Western; conditions: glycan lost; control: wild type
[8] = mCherry fluorescence in media, 24 h; conditions: glycan changed form; control: untreated
[9] = hMMP-9-mCherry fluorescence microscopy; conditions: glycan changed form; control: untreated

B1: human matrix metalloproteinase 9 (hMMP-9): mS38 (protein)
parent chain: MSLWQPLVLVLLVLGCCFAAPRQRQSTLVLFPGDLRTNLTDRQLAEEYLYRYGYTRVAEMRGESKSLGPALLLLQKQLSLPETGELDSATLKAMRTPRCGVPDLGRFQTFEGDLKWHHHNITYWIQNYSEDLPRAVIDDAFARAFALWSAVTPLTFTRVYSRDADIVIQFGVAEHGDGYPFDGKDGLLAHAFPPGPGIQGDAHFDDDELWSLGKGVVVPTRFGNADGAACHFPFIFEGRSYSACTTDGRSDGLPWCSTTANYDTDDRFGFCPSERLYTQDGNADGKPCQFPFIFQGQSYSACTTDGRSDGYRWCATTANYDRDKLFGFCPTRADSTVMGGNSAGELCVFPFTFLGKEYSTCTSEGRGDGRLWCATTSNFDSDKKWGFCPDQGYSLFLVAAHEFGHALGLDHSSVPEALMYPMYRFTEGPPLHKDDVNGIRHLYGPRPEPEPRPPTTTTPQPTAPPTVCPTGPPTVHPSERPTAGPTGPPSAGPTGPPTAGPSTATTVPLSPVDDACNVNIFDAIAEIGNQLYLFKDGKYWRFSEGRGSRPQGPFLIADKWPALPRKLDSVFEERLSKKLFFFSGRQVWVYTGASVLGPRRLDKLGLGADVAQVTGALRSGRGKMLLFSGRRLWRFDVKAQMVDPRSASEVDRMFPGVPLDTHDVFQYREKAYFCQDRFYWRVSSRSELNQVDQVGYVTYDILQCPED
expression_or_secretion [1]: no change
enzymatic_activity [2]: no change
expression_or_secretion, fold_change [3]: no change
expression_or_secretion [4]: no change
other: inhibition by TIMP-1 [5]: no change
localisation_or_trafficking [6]: no change
other: proteolytic processing [7]: no change

B2: human matrix metalloproteinase 9 (hMMP-9): CST (1 mM) (protein)
parent chain: B1 parent chain
expression_or_secretion [8]: decreases
localisation_or_trafficking [9]: changes
